B1: Sorting nexin-8 (Homo sapiens), Q9Y5X2 (parent)
chain: MTGRAMDPLPAAAVGAAAEAEADEEADPPASDLPTPQAIEPQAIVQQVPAPSRMQMPQGNPLLLSHTLQELLARDTVQVELIPEKKGLFLKHVEYEVSSQRFKSSVYRRYNDFVVFQEMLLHKFPYRMVPALPPKRMLGADREFIEARRRALKRFVNLVARHPLFSEDVVLKLFLSFSGSDVQNKLKESAQCVGDEFLNCKLATRAKDFLPADIQAQFAISRELIRNIYNSFHKLRDRAERIASRAIDNAADLLIFGKELSAIGSDTTPLPSWAALNSSTWGSLKQALKGLSVEFALLADKAAQQGKQEENDVVEKLNLFLDLLQSYKDLCERHEKGVLHKHQRALHKYSLMKRQMMSATAQNREPESVEQLESRIVEQENAIQTMELRNYFSLYCLHQETQLIHVYLPLTSHILRAFVNSQIQGHKEMSKVWNDLRPKLSCLFAGPHSTLTPPCSPPEDGLCPH

Variants of: B1
Conditions: with snx1_human SNX1, Q13596
Sequence of snx1_human SNX1, Q13596 (Q13596 whole entry): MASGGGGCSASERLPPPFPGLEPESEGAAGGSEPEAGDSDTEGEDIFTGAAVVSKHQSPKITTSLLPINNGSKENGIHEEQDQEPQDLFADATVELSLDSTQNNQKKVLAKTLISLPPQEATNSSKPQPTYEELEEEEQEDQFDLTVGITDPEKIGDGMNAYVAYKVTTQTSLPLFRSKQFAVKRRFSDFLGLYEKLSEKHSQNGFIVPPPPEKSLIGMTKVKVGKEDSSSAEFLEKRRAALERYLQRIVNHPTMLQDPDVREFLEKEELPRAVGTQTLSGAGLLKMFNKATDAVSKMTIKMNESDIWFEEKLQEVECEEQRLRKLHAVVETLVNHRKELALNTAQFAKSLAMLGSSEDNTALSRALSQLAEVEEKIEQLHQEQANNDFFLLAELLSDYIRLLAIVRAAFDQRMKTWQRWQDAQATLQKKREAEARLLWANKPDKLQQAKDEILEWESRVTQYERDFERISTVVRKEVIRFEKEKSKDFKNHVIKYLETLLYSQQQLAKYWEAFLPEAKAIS

**Q.** E310I was tested. Which “effect of a mutation on the interaction” value did it give?
**A.** increasing interaction
